According to US20190100518A1 (priority 2016, published 2019):

How the values were obtained:
lysozyme = target: T1, lysozyme (Gallus gallus, UniProt P00698); assay: circular dichroism (CD) spectrum, higher-order structure of lysozyme; format: physicochemical; details: 25° C.
T1 construct: purchased Sigma-Aldrich L-4919
Procedure: A keto-ABNO-lysozyme conjugate prepared by the same method as in Example 6 was dissolved in water, and the concentration was adjusted to 20 μM to provide an aqueous solution for a test group. On the other hand, lysozyme alone was dissolved in water, and the concentration was adjusted to 20 μM to provide an aqueous solution for a control group.
Using a circular dichroism (CD) dispersion meter Model 202SF (manufactured by AVIV Biomedical, Inc.), the CD spectrum of the aqueous solution in each of the test group and the control group was measured under the following conditions to perform analysis of the higher-order structure of the lysozyme in each aqueous solution.
On the other hand, control group A was prepared in the same manner as in the method described in Example 6 except that the same amount of water was added instead of the aqueous NaNO2 solution. As control group B, lysozyme alone (20 μM) was used. As control group C, a phenylmaleimide-lysozyme conjugate prepared by the method described in Example 15 was used.
Using a circular dichroism (CD) dispersion meter Model 202SF (manufactured by AVIV Biomedical, Inc.), the CD spectrum was measured for each of the test group and the control groups under the following conditions.

[1] = format: physicochemical
[2] = Example 16: 200 to 250 nm, compared with control groups A and B, FIG. 7

T1 sequence (P00698 19-147): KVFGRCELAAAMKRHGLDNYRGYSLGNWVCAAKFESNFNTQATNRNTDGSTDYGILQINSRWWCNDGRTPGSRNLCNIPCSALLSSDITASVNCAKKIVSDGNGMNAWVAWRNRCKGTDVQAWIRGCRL

| Compound | higher-order structure of lysozyme (waveform of the CD spectrum) (lysozyme; Example 14: 20 μM in water, 200 to 250 nm, compared with lysozyme alone, FIG. 5) | higher-order structure of lysozyme (waveform of the CD spectrum) (lysozyme; [2]) | solubility in water [1] |
| --- | --- | --- | --- |
| keto-ABNO-lysozyme conjugate: lysozyme bound to keto-ABNO at a tryptophan residue, prepared in water with NaNO2 and AcOH | not influenced | maintained | – |
| phenylmaleimide-lysozyme conjugate: lysozyme bound to phenylmaleimide through a cysteine residue, cysteine modification method comparison [reference compound] | – | has changed | – |
| [O]N1C2CCCC1CC(=O)C2 [keto-ABNO, keto-azabicyclo[3.3.1]nonane N-oxyl] | – | – | dissolve in water |
